# Measured values published in US20220204643A1 (published 2022).
# T1: HEAT repeat containing 3, transcript variant 1 (human, UniProt Q7Z4Q2 1-680)
# T1 construct: also called HEATR3
# T1 sequence: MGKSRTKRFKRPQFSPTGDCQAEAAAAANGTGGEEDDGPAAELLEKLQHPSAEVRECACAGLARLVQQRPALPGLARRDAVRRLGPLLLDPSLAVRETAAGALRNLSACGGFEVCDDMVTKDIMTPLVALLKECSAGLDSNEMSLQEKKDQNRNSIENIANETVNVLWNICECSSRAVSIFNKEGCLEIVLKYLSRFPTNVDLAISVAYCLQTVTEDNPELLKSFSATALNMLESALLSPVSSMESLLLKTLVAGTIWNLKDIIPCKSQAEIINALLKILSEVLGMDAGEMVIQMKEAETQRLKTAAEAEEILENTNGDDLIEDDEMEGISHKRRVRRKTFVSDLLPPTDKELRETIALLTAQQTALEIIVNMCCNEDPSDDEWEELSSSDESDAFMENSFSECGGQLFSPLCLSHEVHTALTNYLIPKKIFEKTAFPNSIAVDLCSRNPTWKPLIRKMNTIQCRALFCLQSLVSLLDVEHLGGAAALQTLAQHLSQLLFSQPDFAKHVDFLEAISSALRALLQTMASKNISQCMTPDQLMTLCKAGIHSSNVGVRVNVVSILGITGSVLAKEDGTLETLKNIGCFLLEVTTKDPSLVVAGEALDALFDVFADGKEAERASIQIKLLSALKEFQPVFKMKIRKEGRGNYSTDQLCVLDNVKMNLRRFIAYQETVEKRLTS
# T2: interleukin 27 receptor subunit alpha (human, UniProt Q6UWB1 33-636, limits assumed)
# T2 construct: also called IL27RA
# T2 sequence: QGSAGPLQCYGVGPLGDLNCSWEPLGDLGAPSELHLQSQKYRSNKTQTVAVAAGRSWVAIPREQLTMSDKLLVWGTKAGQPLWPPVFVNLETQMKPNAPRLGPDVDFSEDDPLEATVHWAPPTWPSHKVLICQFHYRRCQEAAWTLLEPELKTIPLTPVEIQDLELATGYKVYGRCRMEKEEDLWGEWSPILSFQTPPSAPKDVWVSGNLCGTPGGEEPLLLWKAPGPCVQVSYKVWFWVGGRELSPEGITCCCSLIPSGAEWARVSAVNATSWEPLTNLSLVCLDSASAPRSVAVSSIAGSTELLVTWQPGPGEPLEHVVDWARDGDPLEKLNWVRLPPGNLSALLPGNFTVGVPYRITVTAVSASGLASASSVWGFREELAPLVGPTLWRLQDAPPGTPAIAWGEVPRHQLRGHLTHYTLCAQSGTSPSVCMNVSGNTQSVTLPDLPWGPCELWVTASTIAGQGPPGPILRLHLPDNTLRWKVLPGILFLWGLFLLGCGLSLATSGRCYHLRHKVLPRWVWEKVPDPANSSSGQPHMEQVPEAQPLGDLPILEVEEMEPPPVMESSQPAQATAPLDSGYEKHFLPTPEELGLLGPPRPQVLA
# T3: Deoxyhypusine synthase (human, UniProt P49366 1-369)
# T3 construct: also called DHPS
# T3 sequence: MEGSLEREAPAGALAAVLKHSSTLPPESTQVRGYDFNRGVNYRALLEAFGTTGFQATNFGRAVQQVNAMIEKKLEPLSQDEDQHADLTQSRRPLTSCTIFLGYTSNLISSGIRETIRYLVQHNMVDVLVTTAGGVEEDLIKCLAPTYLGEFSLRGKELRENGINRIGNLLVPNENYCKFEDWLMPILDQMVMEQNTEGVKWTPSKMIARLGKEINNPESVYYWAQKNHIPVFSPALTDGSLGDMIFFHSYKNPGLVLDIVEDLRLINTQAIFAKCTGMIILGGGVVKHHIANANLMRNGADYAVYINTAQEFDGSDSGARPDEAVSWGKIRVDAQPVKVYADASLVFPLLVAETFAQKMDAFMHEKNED
# T4: Jupiter microtubule associated homolog 2 (human, UniProt Q9H910 1-190)
# T4 construct: HuProt array protein, full-length recombinant from yeast; also called HN1L
# T4 sequence: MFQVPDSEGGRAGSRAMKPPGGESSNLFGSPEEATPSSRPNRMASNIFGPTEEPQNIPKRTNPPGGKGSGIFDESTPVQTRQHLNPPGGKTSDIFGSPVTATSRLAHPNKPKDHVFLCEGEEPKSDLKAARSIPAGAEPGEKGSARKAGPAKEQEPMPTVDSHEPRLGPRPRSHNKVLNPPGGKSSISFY
# B1: TOVA1004 (antibody, V domains shown)
# VH: EVQLVESGGGLVKPGGSLRLSCAASGFTFSSYSMNWVRQAPGKGLEWVSSISSSSSYIYYADSVKGRFTISRDNAKNSLYLQMNSLRAEDTAVYYCARDRGVVVVAATPYYYGMDVWGQGTTVTVSS
# VL: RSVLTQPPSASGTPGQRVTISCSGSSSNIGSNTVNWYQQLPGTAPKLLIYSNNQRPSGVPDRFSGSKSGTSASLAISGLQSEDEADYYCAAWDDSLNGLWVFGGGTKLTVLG
# B2: TOVA1002 (antibody, V domains shown)
# VH: QVQLVESGGGVVQPGRSLRLSCAASGFTFSNFAMHWVRQAPGKGLEWVVVISSDGSNKNYADSVKGRFTISRDNSKNTLYLQMNSLRAEDTAVYYCARDLGVGSTTYWGQGTLVTVSS
# VL: SYVLTQPPSVSVAPGQTARITCGGNNIGSKSVHWYQQKPGQAPVLVVYDDSDRPSGIPERFSGSNSGNTATLTISRVEAGDEADYYCQVWDGYSDPLVFGGGTKLTVLG
# B3: TOVA1003 (antibody)
# VH: GEQLLESGGGLVQPGGSLRLSCAASGFTFSHYAMTWVRQAPGKGLEWVSGVSGSGFTTYYADSVKGRFTISRDNAQNTLYLHMNSLRAEDTAIYYCVKDLEVSIGHNFDFWGQGTLVTVSSASTKGPSVFPLAPSSKSTSGGTAALGCLVKDYFPEPVTVSWNSGALTSGVHTFPAVLQSSGLYSLSSVVTVPSSSLGTQTYICNVNHKPSNTKVDKRV
# VL: EVQMTQSPSSLSASVGDRVTITCRASQHIAGRLNWYQQKPGKAPKLLIHSASSVQREVPSRFGGSGFGTDFTLTIYSLQAEDFATYFCQQSYYTPPTFAGGTRVDLKRTVAAPSVFIFPPSDEQLKSGTASVVCLLNNFYPREAKVQWKVDNALQSGNSQESVTEQDSKDSTYSLSSTLTLSKADYEKHKVYACEVTHQGLSSPVTKSFNRGEC
# B4: TMES1004 (antibody, V domains shown)
# VH: QVQLVQSGAEVKKPGASVKISCKASGYTFTSHAIHWVRQAPGQTFEWLGWINPVNGVTKYSQTFQDRVTIVRDKSATTTYMDLSGLTFEDTAMYYCARVLDFYGSSVLDYWGQGTLVTVSS
# VL: QSALTQPASVSGSPGQSITISCTGTSSDIGTYNLVSWYQQRPGKAPKLIIYDVIKRPSGISDRFSGSKSDNMASLTISGLQAEDEAHYYCCSYRSSTAPVVFGGGTKVTVL
# B5: TMES1002 (antibody, V domains shown)
# VH: QVQVVESGGGLVKPGGSLRLSCAVSGLDFRDYYVNWIRQAPGKGLEWLSYITSPGGHTSYSDSVKGRFTISRDNAKNSVYLQMDSLTVEDTAVYFCAIKEGYGLSDWGQGTLVTVSS
# VL: EIVLTQSPVTLSLSPGERATLSCRASQSVSSSYIAWYQQKPGQAPRLLIYGASTRATGIPDRFSGSGSGTDFTLTISRLEPEDCAVFYCQQYGSSHYTFGQGTKLEIKR
# notes: detected with anti-human IgG Fc
# Assays:
# [1] = target: T1, HEAT repeat containing 3, transcript …
# [2] = target: T2, interleukin 27 receptor subunit alpha
# [3] = target: T3, Deoxyhypusine synthase
# [4] = target: T5, microtubule associated protein RP/EB family member 2, transcript variant 1 (human, UniProt Q15555 1-327)
# T5 construct: also called MAPRE2
# T5 sequence (Q15555 whole entry, change not shown): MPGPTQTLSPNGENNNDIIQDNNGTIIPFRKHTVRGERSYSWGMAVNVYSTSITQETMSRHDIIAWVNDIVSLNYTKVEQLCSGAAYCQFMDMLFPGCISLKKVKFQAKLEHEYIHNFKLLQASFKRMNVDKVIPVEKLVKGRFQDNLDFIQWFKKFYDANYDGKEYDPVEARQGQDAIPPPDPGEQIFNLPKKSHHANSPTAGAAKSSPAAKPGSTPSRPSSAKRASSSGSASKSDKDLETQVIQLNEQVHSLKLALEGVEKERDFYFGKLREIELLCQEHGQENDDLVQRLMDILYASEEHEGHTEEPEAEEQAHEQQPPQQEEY
# [5] = target: T4, Jupiter microtubule associated homolog 2
# [6] = target: T6, BTB domain containing 8 (human, UniProt Q5XKL5 1-374, limits assumed)
# T6 construct: HuProt array protein, full-length recombinant from yeast; also called BTBD8
# T6 sequence (Q5XKL5 other isoform, or with tags, fused parts or gaps limits assumed): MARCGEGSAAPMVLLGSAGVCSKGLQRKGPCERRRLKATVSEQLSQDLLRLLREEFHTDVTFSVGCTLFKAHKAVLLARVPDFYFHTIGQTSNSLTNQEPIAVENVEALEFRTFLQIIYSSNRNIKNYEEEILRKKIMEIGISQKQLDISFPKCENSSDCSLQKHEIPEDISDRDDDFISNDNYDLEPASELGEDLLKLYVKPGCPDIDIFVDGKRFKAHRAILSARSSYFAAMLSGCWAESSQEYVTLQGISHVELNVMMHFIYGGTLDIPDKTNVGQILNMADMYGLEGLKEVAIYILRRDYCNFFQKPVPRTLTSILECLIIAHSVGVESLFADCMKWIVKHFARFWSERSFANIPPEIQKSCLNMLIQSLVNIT
binder,measurement,setting,value
B1,binding result,[1],binds
B2,binding result,[2],binds
B3,binding result,[3],binds
B4,binding result,[4],binds
B5,binding result,[5],binds
same,binding result,[6],binds
